Measurements taken from patent EP4714971A1 (Shanghai Hansoh Biomedical Co., Ltd., dated 2024).

Target: T1, cynomolgus monkey SEZ6 expressed on stably transfected CHO-K1 cells (cynomolgus monkey, UniProt Q53EL9 20-994 (human entry))
T1 construct: also called CHO-cynoSEZ6; monkey SEZ6 on the cell membrane
T1 chain: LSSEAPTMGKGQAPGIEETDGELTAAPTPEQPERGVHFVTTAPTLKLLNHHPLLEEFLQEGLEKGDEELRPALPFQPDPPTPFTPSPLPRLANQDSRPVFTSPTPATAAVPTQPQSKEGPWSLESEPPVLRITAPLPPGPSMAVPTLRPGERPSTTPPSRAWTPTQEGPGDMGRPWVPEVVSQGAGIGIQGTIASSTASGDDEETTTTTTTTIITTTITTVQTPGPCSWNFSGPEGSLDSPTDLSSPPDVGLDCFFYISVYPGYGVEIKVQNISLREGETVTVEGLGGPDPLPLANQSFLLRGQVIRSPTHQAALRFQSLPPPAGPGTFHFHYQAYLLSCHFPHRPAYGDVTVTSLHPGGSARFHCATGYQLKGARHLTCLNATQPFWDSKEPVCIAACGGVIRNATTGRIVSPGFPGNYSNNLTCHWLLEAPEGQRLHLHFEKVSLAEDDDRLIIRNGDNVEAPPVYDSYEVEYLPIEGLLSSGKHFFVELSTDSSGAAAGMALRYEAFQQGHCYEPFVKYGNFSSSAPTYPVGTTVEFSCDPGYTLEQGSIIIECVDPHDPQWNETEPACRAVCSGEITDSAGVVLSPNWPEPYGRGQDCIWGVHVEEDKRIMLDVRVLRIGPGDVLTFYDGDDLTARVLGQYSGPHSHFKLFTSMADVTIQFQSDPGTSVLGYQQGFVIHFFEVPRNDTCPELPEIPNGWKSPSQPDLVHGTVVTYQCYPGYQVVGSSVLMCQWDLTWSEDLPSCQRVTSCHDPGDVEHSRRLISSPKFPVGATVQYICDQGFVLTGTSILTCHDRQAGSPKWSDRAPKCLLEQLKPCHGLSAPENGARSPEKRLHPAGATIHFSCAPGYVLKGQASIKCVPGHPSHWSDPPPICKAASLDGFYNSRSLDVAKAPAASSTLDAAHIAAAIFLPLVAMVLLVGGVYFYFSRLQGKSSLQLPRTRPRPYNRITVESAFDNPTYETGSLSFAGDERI
Test: flow cytometry on CHO-K1 cells expressing cynomolgus monkey SEZ6

B1: hSC200 (hSC17.200) (antibody, human IgG1, kappa, V domains shown)
VH: EVQLVQSGAEVKKPGESLKISCKGSGYSFTSSWINWVRQMPGKGLEWMGRIYPGEGDTNYNGNFEGQVTISADKSISTAYLQWSSLKASDTAMYYCTRGLVMDYWGQGTLVTVSS
VL: EIVLTQSPATLSLSPGERATLSCRASQSVDYNGISYMHWYQQKPGQAPRLLIYAASNVQSGIPARFSGSGSGTDFTLTISSLEPEDFAVYYCQQSIEDPPTFGGGTKVEIKR
notes: also called control molecule; control antibody
EC50: 0.26 nM
